Values quoted from earlier work as cited in PMC7194015, “Proline-Rich Antimicrobial Peptides in Medicinal Maggots of Lucilia sericata Interact With Bacterial DnaK But Do Not Inhibit Protein Synthesis” (Frontiers in Pharmacology, 2020).

Molecular target: DnaK (Escherichia coli) (UniProt P0A6Y8)
Sequence (P0A6Y8 2-638): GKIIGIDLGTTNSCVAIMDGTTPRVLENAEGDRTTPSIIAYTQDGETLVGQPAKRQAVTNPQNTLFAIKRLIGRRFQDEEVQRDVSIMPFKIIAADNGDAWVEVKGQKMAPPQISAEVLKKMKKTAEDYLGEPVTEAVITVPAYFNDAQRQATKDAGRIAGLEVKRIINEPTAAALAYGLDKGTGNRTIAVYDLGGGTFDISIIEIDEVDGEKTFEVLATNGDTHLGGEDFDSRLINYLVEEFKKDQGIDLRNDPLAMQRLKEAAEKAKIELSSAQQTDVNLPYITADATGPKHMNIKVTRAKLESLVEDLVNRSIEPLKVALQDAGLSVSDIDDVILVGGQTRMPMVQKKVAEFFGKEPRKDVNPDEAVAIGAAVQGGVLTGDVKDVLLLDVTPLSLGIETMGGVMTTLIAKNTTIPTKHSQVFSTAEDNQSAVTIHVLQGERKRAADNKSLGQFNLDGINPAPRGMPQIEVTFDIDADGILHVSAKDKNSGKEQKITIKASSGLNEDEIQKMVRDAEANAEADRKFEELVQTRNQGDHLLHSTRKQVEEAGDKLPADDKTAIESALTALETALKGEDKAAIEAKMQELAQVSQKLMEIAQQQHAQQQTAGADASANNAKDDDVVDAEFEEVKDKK

abaecin, sequence (P81463 whole entry): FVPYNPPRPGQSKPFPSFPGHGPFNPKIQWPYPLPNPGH

Kd: 100 nM
Substance: abaecin (from UniProt P81463)
